The results in this text go back to publication PMC2422856.

The target in this test is CapAB(K55M), inactive P-loop mutant of the CapAB chimeric protein, unphosphorylated (Staphylococcus aureus). As to the kind of experiment: crystal structure; CapAB(K55M) at 8.5 mg/ml with 10 mM MgCl2, 20% (v/v) PEG 1000, 200 mM glycine, 0.1 M Na-Hepes pH 7.5, 18 °C; 2.6 Å.

As a reminder, the stoichiometry N is a count of units in the complex or per binding partner. Take “CapAB(K55M), inactive P-loop mutant of the CapAB chimeric protein, unphosphorylated”: the stoichiometry N was 8.
